Patent publication US20190040130A1 (Alector, published 2019)
Where a chain is given by its changes, count along the chain named. In names and notes the source's numbering stands.

Columns and labels:
[1] = target: T1, human TREM2/DAP12 fusion protein in BW5147.G.1.4 NFAT-luciferase reporter cells (human, UniProt O43914 41-113, limits assumed); assay: cell-based or functional assay
[2] = target: T1, human TREM2/DAP12 fusion protein in …; assay: cell-based or functional assay; remark: listed apart in the source
[3] = target: T1, human TREM2/DAP12 fusion protein in …; assay: cell-based or functional assay; remark: listed apart in the source
[4] = target: T2, human TREM2 expressed on cells (human, UniProt Q9NZC2 19-230); assay: FACS, BW cells
T2 construct: also called huT2 BW; cell expressed TREM2
T2 sequence: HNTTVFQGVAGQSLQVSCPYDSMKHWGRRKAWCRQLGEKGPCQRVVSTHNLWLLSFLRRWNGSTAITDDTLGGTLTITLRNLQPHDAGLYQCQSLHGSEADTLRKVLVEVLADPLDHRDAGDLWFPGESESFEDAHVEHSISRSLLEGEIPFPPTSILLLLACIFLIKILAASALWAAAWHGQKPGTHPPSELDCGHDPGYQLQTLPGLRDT
Experimental: To examine cell binding of anti-TREM2 antibodies, recombinant, human TREM2-expressing BW5147. G.1.4 cells (ATCC® TIB48™) were established by stably expressing either mouse TREM2 or human TREM2 together with Dap12 using viral infection. Cells were harvested by scraping, washed in PBS, counted and plated on 96-well U bottom plates at 1×10⁵ cells/well. The plates were spun at 1,400 rpm for 3 minutes and primary anti-TREM2 or control antibodies were added in FACS buffer (PBS+2% FBS) and incubated on ice for one hour. Cells were subsequently centrifuged as before and washed thrice with FACS buffer. Cells were then incubated with anti-human PE conjugated secondary antibody (BD Biosciences) in FACS buffer for 30 minutes on ice. Cells were again washed thrice with FACS buffer and analyzed on a BD FACS Canto. Binding was measured as mean fluorescence intensity in the […].

[5] = target: T2, human TREM2 expressed on cells; assay: cell-based or functional assay
[6] = target: T1, human TREM2/DAP12 fusion protein in …; assay: cell-based or functional assay; remark: listed apart in the source
[7] = target: T1, human TREM2/DAP12 fusion protein in …; assay: cell-based or functional assay; remark: listed apart in the source
[8] = target: T1, human TREM2/DAP12 fusion protein in …; assay: cell-based or functional assay; remark: listed apart in the source
[9] = target: T1, human TREM2/DAP12 fusion protein in …; assay: cell-based or functional assay; remark: listed apart in the source
[10] = target: T1, human TREM2/DAP12 fusion protein in …; assay: cell-based or functional assay; remark: listed apart in the source

B1: AL2p-58 (antibody, V domains shown)
VH: QVQLVQSGAEVKKPGASVKVSCKASGYAFSSQWMNWVRQAPGQRLEWIGRIYPGGGDTNYAGKFQGRVTITADTSASTAYMELSSLRSEDTAVYYCARLLRNQPGESYAMDYWGQGTLVTVSS
VL: DVVMTQSPDSLAVSLGERATINCRSSQSLVHSNRYTYLHWYQQKPGQSPKLLIYKVSNRFSGVPDRFSGSGSGTDFTLKISRVEAEDVGVYYCSQSTRVPYTFGQGTKLEIK
EC50 (read off the curve); NFAT:luciferase luminescence, BW reporter cells, soluble IgG [1]: ~1 µg/mL

B2: AL2p-31 msFc (antibody, V domains shown)
VH: B1 VH with A16S, R44G, I48M, G62R, T74E, A76T
VL: GVVMTQTPLSLSVTPGQPASISCRSSQSLVHSNGYTYLHWYLQKPGQSPQLLIYKVSNRRSGVPDRFSGSGSGTDFTLKISRVEAEDVGVYYCSQSTRVPYTFGQGTKLEIK
EC50 (read off the curve); NFAT:luciferase luminescence, BWZ reporter cells, soluble IgG [2]: ~0.8 µg/mL
EC50 (read off the curve); NFAT:luciferase luminescence, BWZ reporter cells, plate bound IgG [3]: ~3 µg/mL

B3: AL2p-h43 (antibody, IgG1, V domains shown)
VH: B1 VH with V18L, Q32S, G55D, A61N, K63E, Q65R, G66V, V68A, I70L, Y95F
VL: B2 VL with G1D, R60F
notes: IgG1; Fab in monovalent BLI
Cell binding (FOB) [4]: 91 fold over background

B4: AL2p-58 msFc (antibody)
chain 1: B1 VH
chain 2: B1 VL
EC50 (read off the curve); NFAT:luciferase luminescence, BWZ reporter cells, soluble IgG [2]: ~0.7 µg/mL

B5: AL2p-60 (antibody, IgG1, V domains shown)
VH: B1 VH with A16S, R44G, I48M, G62R, T74E, A76T
VL: B2 VL with G34R
viability EC50, dendritic cells D558 [5]: 152 pM
viability EC50, dendritic cells D559 [5]: 244 pM
viability EC50, dendritic cells D560 [5]: 178 pM
viability EC50, macrophages D559 [5]: 194 pM
viability EC50, macrophages D560 [5]: 154 pM

B6: AL2p-h90 (antibody, IgG1, V domains shown)
VH: B1 VH with Q32S, G55D, G62Q
VL: DVQMTQSPSSLSASVGDRVTITCRSSQSLVHSNGYTYLHWYQQKPGKSPKLLIYKVSNRFSGVPSRFSGSGSGTDFTLTISSLQPEDFATYYCSQSTRVPYTFGGGTKVEIK
notes: IgG1; Fab in monovalent BLI
Cell binding (FOB) [4]: 126 fold over background

B7: AL2p-59 (antibody, V domains shown)
VH: B1 VH with A16S, Q32H, R44G, I48M, G55E, D57Q, G62Q, F64R, T74E, A76T
VL: B2 VL with S25T, G34Q, R60V
EC50 (read off the curve); NFAT:luciferase luminescence, BW reporter cells, soluble IgG [1]: ~2 µg/mL

B8: AL2p-h76 (antibody, IgG1, V domains shown)
VH: B1 VH with Q32S, G55D, G62Q, V68A, Y95F
VL: B1 VL with R34G, K79T, R82S, V83L, E84Q, G89A, Q105G, L109V
notes: IgG1; Fab in monovalent BLI
Cell binding (FOB) [4]: 86 fold over background
Soluble luciferase activation at 10 µg/ml [6]: 6.52 fold over control

B9: AL2p-14 (antibody, IgG1, V domains shown)
VH: B1 VH with A16S, Q32H, R44G, I48M, G55D, G62Q, T74E, A76T
VL: B2 VL with Q27R, R60F
Luciferase activation plate bound 33 nM IgG [7]: 22.1 FOC

B10: AL2p (parental mouse anti-TREM2 antibody) (antibody, human IgG1, V domains shown)
VH: QVQLQQSGPELVKPGASLKISCKASGYAFSSSWMNWVKQRPGKGLEWIGRIYPGDGDTNYNGEFRVRATLTADTSSTTAYMQLSSLTSEDSAVYFCARLLRNQPGESYAMDYWGQGASVTVSS
VL: DVVMTQTPLSLPVSLGDQASISCRSSQSLVHSNGYTYLHWYLQKPGQSPKLLIYKVSNRFSGVPDRFSGSGSGTDFTLKISRVEADDLGVYFCSQSTRVPYTFGGGTKLEIK
notes: Mouse variable regions; tested as Fab, as human-mouse chimera (human IgG1 Fc) and as msIgG1; see assay; also called 9F5; 9F5a
Cell binding (FOB) [4]: 79 fold over background
EC50 (read off the curve); NFAT:luciferase luminescence, BWZ reporter cells, soluble antibody, 6 h [8]: ~2 µg/mL
EC50 (read off the curve); NFAT:luciferase luminescence, BWZ reporter cells co-cultured 1:1 with THP-1 cells, 6 h [9]: ~1 µg/mL

B11: AL2p huIgG1 E430G (antibody, V domains shown)
VH: B10 VH
VL: B10 VL
EC50 (read off the curve); NFAT:luciferase luminescence, BWZ reporter cells co-cultured 1:1 with THP-1 cells, 6 h [9]: ~0.3 µg/mL

B12: AL2p-58 huIgG1 PSEG (antibody)
heavy: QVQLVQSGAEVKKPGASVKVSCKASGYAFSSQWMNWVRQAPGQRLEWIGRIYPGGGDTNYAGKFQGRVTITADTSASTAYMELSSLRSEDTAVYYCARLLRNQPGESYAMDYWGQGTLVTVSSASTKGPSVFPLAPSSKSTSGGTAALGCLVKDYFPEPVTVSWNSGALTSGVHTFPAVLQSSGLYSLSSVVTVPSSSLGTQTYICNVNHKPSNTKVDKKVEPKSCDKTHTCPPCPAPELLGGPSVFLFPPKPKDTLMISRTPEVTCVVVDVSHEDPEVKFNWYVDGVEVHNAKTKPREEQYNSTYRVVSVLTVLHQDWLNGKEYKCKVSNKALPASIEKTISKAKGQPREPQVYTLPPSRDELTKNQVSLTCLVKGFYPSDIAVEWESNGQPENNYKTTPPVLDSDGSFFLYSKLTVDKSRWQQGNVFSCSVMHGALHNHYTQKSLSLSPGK
light: DVVMTQSPDSLAVSLGERATINCRSSQSLVHSNRYTYLHWYQQKPGQSPKLLIYKVSNRFSGVPDRFSGSGSGTDFTLKISRVEAEDVGVYYCSQSTRVPYTFGQGTKLEIKRTVAAPSVFIFPPSDEQLKSGTASVVCLLNNFYPREAKVQWKVDNALQSGNSQESVTEQDSKDSTYSLSSTLTLSKADYEKHKVYACEVTHQGLSSPVTKSFNRGEC
plate bound signal activation, fold over AL2p [10]: 10 fold
